Columns and labels:
[1] = target: full-length GST–MLV IN(1–408) (murine leukemia virus (MLV)); assay: pull-down
[2] = tested on: 6xHis-Brd4(1-720) (human); assay: streptavidin bead pull-down, Coomassie, Hill fit; details: no added Mg2+; DNA pull-down: 50 mM HEPES pH 7.5, 100 mM NaCl, 0.5% NP40, 2 mM BME, 8.3 uM DNA; HTRF: 25 mM Tris pH 7.4, 150 mM NaCl, 2 mM MgCl2, 0.1% NP40, 1 mg/ml BSA …

Chain of full-length GST–MLV IN(1–408) (murine leukemia virus (MLV)) (P03355 1331-1738 limits assumed): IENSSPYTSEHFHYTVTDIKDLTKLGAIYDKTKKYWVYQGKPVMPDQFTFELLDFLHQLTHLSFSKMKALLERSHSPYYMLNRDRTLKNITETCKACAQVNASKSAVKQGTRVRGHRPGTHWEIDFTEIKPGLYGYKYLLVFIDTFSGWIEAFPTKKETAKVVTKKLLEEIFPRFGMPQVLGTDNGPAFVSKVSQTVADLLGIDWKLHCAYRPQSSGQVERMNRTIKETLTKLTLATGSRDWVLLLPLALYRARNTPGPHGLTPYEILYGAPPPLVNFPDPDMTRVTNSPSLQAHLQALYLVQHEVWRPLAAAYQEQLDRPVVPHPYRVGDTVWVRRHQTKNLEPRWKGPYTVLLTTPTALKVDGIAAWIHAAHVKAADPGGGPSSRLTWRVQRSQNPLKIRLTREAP

| Substance | Kd [1] | Kd [2] |
| --- | --- | --- |
| 6xHis–cBrd4(462–720) (from UniProt O60885 462-720) (domain or fragment) | 77.3 nM |  |
| 40-bp SMYD1 DNA |  | 2140 nM |
| 6xHis–Brd4(1–720) (from UniProt O60885 1-720) (natural protein) | 58.4 nM |  |
| 6xHis–Brd4 B/BID(462–599) (from UniProt O60885 462-599) (domain or fragment) | > 2000 nM |  |
| 6xHis–Brd4 ET(600–678) (from UniProt O60885 600-678) (domain or fragment) | 205 nM |  |
| 6xHis–Brd4 ET/SEED(600–720) (from UniProt O60885 600-720) (domain or fragment) | 206 nM |  |
| 6xHis–nBrd4(1–461) (from UniProt O60885 1-461) (domain or fragment) | > 2000 nM |  |

— article PMC4005663
